B1: 22112 (protein)
chain: MALPVTALLLPLALLLHAARPDIQMTQSPSSLSASVGDRVTITCKASDHINNWLAWYQQKPGQAPKLLIYGATTLETGVPSRFSGSGSGTDYTLTISSLQPEDFATYYCQQSWNTPWTFGQGTKLEIKRLEDLKNVFPPEVAVFEPSEAEISHTQKATLVCLATGFYPDHVELSWWVNGKEVHSGVCTDPQPLKEQPALNDSRYCLSSRLRVSATFWQNPRNHFRCQVQFYGLSENDEWTQDRAKPVTQIVSAEAWGRADCGFTSESYQQGVLSATILYEILLGKATLYAVLVSALVLMAMVKRKDSRGRAKRSGSGATNFSLLKQAGDVEENPGPTSATMDWIWRILFLVGAATGAHSGPEVQLVESGGGLVQAGGSLRLSCAASGRTFTMGWFRQAPGKEREFVAAISLSPTLAYYADSVKGRFTISRDNAKNTVVLQMNSLKPEDTALYYCAADRKSVMSIRPDYWGQGTQVTVSSGSGGGGSGGGGSGGGGSFEQVQLQQPGAELVKPGASVKMSCKASGYAFSSYWINWMKQKPGQGLEWIGQIYPGDGDTNYNGKFKGRATLTADTSSSTAYMQLSSLTSEDSAVYFCARSITTVVGCAMDYWGQGTSVTVSSTRIQNPDPAVYQLRDSKSSDKSVCLFTDFDSQTNVSQSKDSDVYITDKCVLDMRSMDFKSNSAVAWSNKSDFACANAFNNSIIPEDTFFPSPESSCDVKLVEKSFETDTNLNFQNLSVIGFRILLLKVAGFNLLMTLRLWSSRAKRSGSGVKQTLNFDLLKLAGDVESNPGPSRGHMTEYKPTVRLATRDDVPRAVRTLAAAFADYPATRHTVDPDRHIERVTELQELFLTRVGLDIGKVWVADDGAAVAVWTTPESVEAGAVFAEIGPRMAELSGSRLAAQQQMEGLLAPHRPKEPAWFLATVGVSPDHQGKGLGSAVVLPGVEAAERAGVPAFLETSAPRNLPFYERLGFTVTADVEVPEGPRTWCMTRKPGA
B2: 22113 (protein)
chain: MALPVTALLLPLALLLHAARPDIQMTQSPSSLSASVGDRVTITCKASDHINNWLAWYQQKPGQAPKLLIYGATTLETGVPSRFSGSGSGTDYTLTISSLQPEDFATYYCQQSWNTPWTFGQGTKLEIKRLEDLKNVFPPEVAVFEPSKAEIAHTQKATLVCLATGFYPDHVELSWWVNGKEVHSGVCTDPQPLKEQPALNDSRYCLSSRLRVSATFWQNPRNHFRCQVQFYGLSENDEWTQDRAKPVTQIVSAEAWGRADCGITSASYHQGVLSATILYEILLGKATLYAVLVSALVLMAMVKRKDSRGRAKRSGSGATNFSLLKQAGDVEENPGPTSMDWIWRILFLVGAATGAHSGPQVQLQESGGGLAQAGGSLRLSCAASGRTFSMGWFRQAPGKEREFVAAITYSGGSPYYASSVRGRFTISRDNAKNTVYLQMNSLKPEDTAVYYCAANPTYGSDWNAENWGQGTQVTVSSGSGGGGSGGGGSGGGGSFEQVQLQQPGAELVKPGASVKMSCKASGYAFSSYWINWMKQKPGQGLEWIGQIYPGDGDTNYNGKFKGRATLTADTSSSTAYMQLSSLTSEDSAVYFCARSITTVVGCAMDYWGQGTSVTVSSTRIQNPDPAVYQLRDSKSSDKSVCLFTDFDSQTNVSQSKDSDVYITDKCVLDMRSMDFKSNSAVAWSNKSDFACANAFNNSIIPEDTFFPSSDVPCDVKLVEKSFETDTNLNFQNLSVIGFRILLLKVAGFNLLMTLRLWSSRAKRSGSGVKQTLNFDLLKLAGDVESNPGPSRGHMTEYKPTVRLATRDDVPRAVRTLAAAFADYPATRHTVDPDRHIERVTELQELFLTRVGLDIGKVWVADDGAAVAVWTTPESVEAGAVFAEIGPRMAELSGSRLAAQQQMEGLLAPHRPKEPAWFLATVGVSPDHQGKGLGSAVVLPGVEAAERAGVPAFLETSAPRNLPFYERLGFTVTADVEVPEGPRTWCMTRKPGA
B3: 22120 (protein)
chain: MALPVTALLLPLALLLHAARPDIQMTQSPSSLSASVGDRVTITCKASDHINNWLAWYQQKPGQAPKLLIYGATTLETGVPSRFSGSGSGTDYTLTISSLQPEDFATYYCQQSWNTPWTFGQGTKLEIKRLEGQPKANPTVTLFPPSSEELQANKATLVCLISDFYPGAVTVAWKADGSPVKAGVETTKPSKQSNNKYAASSYLSLTPEQWKSHRSYSCQVTHEGSTVEKTVAPTECSGRADCGFTSESYQQGVLSATILYEILLGKATLYAVLVSALVLMAMVKRKDSRGRAKRSGSGATNFSLLKQAGDVEENPGPTSATMDWIWRILFLVGAATGAHSGPQVQLQESGGGLAQAGGSLRLSCAASGRTFSMGWFRQAPGKEREFVAAITYSGGSPYYASSVRGRFTISRDNAKNTVYLQMNSLKPEDTAVYYCAANPTYGSDWNAENWGQGTQVTVSSGSGGGGSGGGGSGGGGSFEQVQLQQPGAELVKPGASVKMSCKASGYAFSSYWINWMKQKPGQGLEWIGQIYPGDGDTNYNGKFKGRATLTADTSSSTAYMQLSSLTSEDSAVYFCARSITTVVGCAMDYWGQGTSVTVSSTRASTKGPSVFPLAPSSKSTSGGTAALGCLVKDYFPEPVTVSWNSGALTSGVHTFPAVLQSSGLYSLSSVVTVPSSSLGTQTYICNVNHKPSNTKVDKRVEPKSCIPEDTFFPSPESSCDVKLVEKSFETDTNLNFQNLSVIGFRILLLKVAGFNLLMTLRLWSSRAKRSGSGVKQTLNFDLLKLAGDVESNPGPSRGHMTEYKPTVRLATRDDVPRAVRTLAAAFADYPATRHTVDPDRHIERVTELQELFLTRVGLDIGKVWVADDGAAVAVWTTPESVEAGAVFAEIGPRMAELSGSRLAAQQQMEGLLAPHRPKEPAWFLATVGVSPDHQGKGLGSAVVLPGVEAAERAGVPAFLETSAPRNLPFYERLGFTVTADVEVPEGPRTWCMTRKPGA
B4: 22133 (protein)
chain: MALPVTALLLPLALLLHAARPEVQLVESGGGLVQPGGSLRLSCAASGFSFSDFWMSWVRQAPGKGLEWVATISQAGSEKDYVDSVKGRFTISRDNAKKSLYLQMNSLRAEDTAVYYCASGVYSFDYRGQGTLVTVSSGTGGGGSGGGGSGGGGSEFDIQMTQSPSSLSASVGDRVTITCKASDHINNWLAWYQQKPGQAPKLLIYGATTLETGVPSRFSGSGSGTDYTLTISSLQPEDFATYYCQQSWNTPWTFGQGTKLEIKRLEDLKNVFPPEVAVFEPSKAEIAHTQKATLVCLATGFYPDHVELSWWVNGKEVHSGVCTDPQPLKEQPALNDSRYCLSSRLRVSATFWQNPRNHFRCQVQFYGLSENDEWTQDRAKPVTQIVSAEAWGRADCGITSASYHQGVLSATILYEILLGKATLYAVLVSALVLMAMVKRKDSRGRAKRSGSGATNFSLLKQAGDVEENPGPTSATMDWIWRILFLVGAATGAHSGPQVQLQESGGGLAQAGGSLRLSCAASGRTFSMGWFRQAPGKEREFVAAITYSGGSPYYASSVRGRFTISRDNAKNTVYLQMNSLKPEDTAVYYCAANPTYGSDWNAENWGQGTQVTVSSGSGGGGSGGGGSGGGGSFEQVQLQQPGAELVKPGASVKMSCKASGYAFSSYWINWMKQKPGQGLEWIGQIYPGDGDTNYNGKFKGRATLTADTSSSTAYMQLSSLTSEDSAVYFCARSITTVVGCAMDYWGQGTSVTVSSTRIQNPDPAVYQLRDSKSSDKSVCLFTDFDSQTNVSQSKDSDVYITDKCVLDMRSMDFKSNSAVAWSNKSDFACANAFNNSIIPEDTFFPSSDVPCDVKLVEKSFETDTNLNFQNLSVIGFRILLLKVAGFNLLMTLRLWSSRAKRSGSGVKQTLNFDLLKLAGDVESNPGPSRGHMTEYKPTVRLATRDDVPRAVRTLAAAFADYPATRHTVDPDRHIERVTELQELFLTRVGLDIGKVWVADDGAAVAVWTTPESVEAGAVFAEIGPRMAELSGSRLAAQQQMEGLLAPHRPKEPAWFLATVGVSPDHQGKGLGSAVVLPGVEAAERAGVPAFLETSAPRNLPFYERLGFTVTADVEVPEGPRTWCMTRKPGA

These molecules were tested on RAJI-CD19-KO cells (assay: JNG assay, co-culture with RAJI-CD19-KO cells). Conditions: co-culture with Raji-CD19-KO.
Format: cell-based
Experimental: Cellular supernatant is collected and assayed for the induction of cytokines (e.g., IL2).
JNG (Jurkat cells expressing EGFP under an NFAT promoter) were infected with lentiviral vectors encoding different single chain and multi-chain SARs by spinfection in the presence of 8 µg/ml of Polybrene® (Sigma, Catalog no. H9268). The Jurkat-NFAT-GFP cells are engineered in such a way that the IL-2 promoter, which carries NFAT binding sites, is cloned upstream of the GFP gene. These cells have been used to study signaling via TCR and CAR. The different SARs were stably expressed in Jurkat NFAT-GFP cells by lentiviral mediated gene transfer, followed by selection with puromycin or blasticidin. No drug selection was used in case the construct lacked an antibiotic resistance gene. The SAR-expressing Jurkat-NFAT-GFP cells were cocultured with the target cells at E:T ratio of approximately 1:2 for approximately 4 hours to 18 hours. When the interaction between SIRs and their target antigen results in activation of the NFAT pathway, GFP expression is induced. […] GFP expression was monitored by FACS analysis. The Jurkat-NFAT-GFP (parental) cells were used as control. The structure of different constructs can be determined based on their names. […] The sequence of the other constructs in the table can be similarly determined from their names and by referring to the different Tables of this disclosure that provide the names and SEQ ID NO of the different modules. Alternatively, the composition and modular architecture of the different SAR constructs can be determined from their sequences by bioinformatics tools, including using nucleic acid and amino acids homology searches. A SAR is considered positive in the assay in case the SAR expressing Jurkat-NFAT-GFP cells show greater % GFP positive cells when cultured with the target cell line as compared to parental Jurkat-NFAT-GFP cells. […] In general, the number +/-, +, 2+, 3+, 4+, 5+ refer to approximately 5%, 10%, 20%, 30%, 40% and 50% GFP positive cells. The % of GFP induction in the above assay is dependent not only the relative strength of the SAR but also, among other factors, on the relative level of expression of the SAR in the JNG cells and the relative level of expression of the target antigen in the target cell line. To control for the difference in gene transduction efficiency of the different SAR constructs, the experiment was conducted with JNG cells transduced with SAR constructs co-expressing a drug resistance gene (e.g., puromycin or PAC) followed by drug selection to generate a stable population of SAR-expressing cells. It is to be noted that the drug resistance gene (e.g., PAC) in the SAR constructs is optional and in vivo studies were conducted with SAR constructs lacking the PAC gene.

Molecule | NFAT-GFP ASSAY: Raji-CD19-KO
B1 | 5+ (refer to approximately 5%, 10%, 20%, 30%, 40% and 50% GFP positive cells)
B2 | 4+ (refer to approximately 5%, 10%, 20%, 30%, 40% and 50% GFP positive cells)
B3 | 3+ (refer to approximately 5%, 10%, 20%, 30%, 40% and 50% GFP positive cells)
B4 | 5+ (refer to approximately 5%, 10%, 20%, 30%, 40% and 50% GFP positive cells)

What follows are molecules tested on RAJI cells (assay: JNG assay, co-culture with RAJI cells). Conditions: JNG cells expressing construct, co-culture with Raji.
Format: cell-based
Summary of the method: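 Read-out is NFAT-driven GFP measured by flow cytometry after ~4–18 h co-culture of SAR-expressing JNG cells with target cells (E:T about 1:2). SARs were introduced by lentiviral spinfection and selected with puromycin or blasticidin when possible; scores (+/- to 5+ ≈ 5–50% GFP+) are relative to parental JNG cells.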

Molecule | NFAT-GFP ASSAY: Raji
B2 | 5+ (refer to approximately 5%, 10%, 20%, 30%, 40% and 50% GFP positive cells)
B3 | 4+ (refer to approximately 5%, 10%, 20%, 30%, 40% and 50% GFP positive cells)
